Laboratory results from CN114989293A (UNIV CHONGQING MEDICAL; FENG YULIN, dated 2022).

Target: 新冠病毒(SARS-CoV-2) S蛋白受体结合域 RBD (SARS-CoV-2, UniProt P0DTC2 319-541)
Test: ELISA, antigen coated at 2 μg/mL, 293T supernatant, anti-human IgG-ALP detection

| Binder | binding result |
| --- | --- |
| 单抗18-CQTS083 (antibody, V domains shown) VH: EVQLVESGGGLVQPGGSLRLSCAASGLTVSSNYMSWVRQAPGKGLEWVSLIYSGGSTYYADSVKGRFTISRHNSKNTLYLQMNSLRAEDTAVYYCARDLEERGAMDVWGQGTTVTVSS VL: not shown | binds |
| 单抗19-CQTS086 (antibody, V domains shown) VH: EVQLVESGGGLVQPGGSLRLSCAASGITVNSNYMSWVRQAPGKGLEWVSVIYNGVTTYYADSVKGRFTISRDISKNTVYLQMNSLRAEDTAVYYCARAGWLRGRFDPWGQGTLVIVSS VL: SYVLTQPPSVSVAPGQTASITCGGSNIGSKNVHWYQQKSGQAPVLVVYDDSDRPSGIPERFSGSNSGNTATLIINRVEAGDEADYYCQVWDSTTDLPHWVFGGGTKLTVL | binds |
| 单抗14-CQTS079 (antibody, V domains shown) VH: EVQLVESGGGLIQPGGSLRLSCAASGFTVSSNYMSWVRQAPGKGLEWVSVIYSGDNTYYADSVKGRFTISRDNSKNTLYLQMNSLRAEDTAVYYCAKMLWLRGWFDPWGQGTLVTVSS VL: NFMLTQPHSVSESPGKTVTISCTRSSGSIASNYVQWYQQRPGSAPTTVIYEDNQRPSGVPDRFSGSIDSSSDSASLTISGLKTEDEADYYCQSYDTSNHWVFGGGTKLTVL | binds |
| 单抗12-CQTS077 (antibody, V domains shown) VH: EVQLVESGGGVVQPGGSLRLSCAASGFTFDDYAMNWVRQAPGKGLEWVSLISGDGDSPSYSGSVKGRFTISRDNSKNSLYLQMISLRTEDTALYYCARESPKLTGYFDYWGQGTLVTVSS VL: SYVLTQPPSVSVAPGQTAGITCGGDDIGSKNVHWYQQKPGQAPVLVVYDDHDRPSGIPERFSGSNSGNTATLTISRVEAGDEADYYCQVWDSSSDPYVFGTGTKVTVL | binds |
| 单抗15-CQTS080 (antibody, V domains shown) VH: QVTLRESGPALVRPTQTLTLTCTFAGFSLRTHGMCVSWIRQPPGKALEWLARIDWDGDKYYSTSLKTRLTISKDTSKDQVVLTMTNMDPVDTATYYCARFLVGGFKAWFDPWGQGTLVTVSS VL: QSVLTQPPSVSAAPGQKVTISCSGSSSNIGNNYVSWYQQLPGIAPELLIYDNNKRPSGIPGRFSGSRSGTSATLDITGLQTGDEADYYCGTWDTSLNVWVFGGGTKLTVL | binds |
| 单抗17-CQTS082 (antibody, V domains shown) VH: EVQLVQSGAEVKKPGESLKISCKGSGYSFSTYWIGWVRQMPGKGLEWMGIIYPYDSDTRYSPSFQGQVTISADKSISTAYLQWSSLKASDTAIYYCARQESGWSFDYWGQGTLVTVSS VL: DIQMTQSPSSLSASVGDRVTITCRASQNINKYLNWYQQKPGKAPKLLIYVASSLQSGVPSRFSGSGSGTDFTLTISSLQPEDFATYYCQQSYSTPRTFGQGTKVEIK | binds |
| 单抗13-CQTS078 (antibody, V domains shown) VH: QVQLVQSGAEVKKPGASVRVSCKASGDTFSSHYIHWVRQAPGQGLEWMGIINPSGGSTSYAQKFQGRVTMTSDTSTSTVYLELSSLRSEDTAVYYCARDQAFIVATLGPDYWGQGILVTVSS VL: QTVVTQEPSFSVSPGGTVTLTCGLSSGSVSTSYYASWYQQTPGQAPRTLIYSTNTRSSGVPDRFSGSILGNKAALTITGAQADDESDYYCVLYMGSGIWVFGGGTKLTVL | binds |
